Experimental data taken from publication PMC10447241 (Nature, 2023).
Values belong to the molecule of their own block, whether it stands above or below them.

What was measured:
Test in all cases: FRET or BRET; GCGR–Rluc8 (or mutants) and βarr1–GFP2 (or mutants) co-transfected 1:1 in HEK293F cells; glucagon 1 pM to 10 μM; HBSS, 20 mM HEPES pH 7.4; coelenterazine 400a; EC50 is that of glucagon in inducing the BRET signal
[1] = target: the GCGR mutations R413A and R414A (as a group, for the printed range of the EC50 shift)
[2] = target: wild-type GCGR with Rluc8 at the C terminus (human) (UniProt P47871)
[3] = target: T1, wild-type GCGR with Rluc8 at the C terminus (human, UniProt P47871 26-477); conditions: partners not purified
T1 construct: glucagon receptor (GCGR), human, wild type; also called WT; source: HEK293F, transfected, in living cells; not shown: FLAG, N-terminal, kept; Rluc8, C-terminal, kept
T1 sequence (P47871 26-477): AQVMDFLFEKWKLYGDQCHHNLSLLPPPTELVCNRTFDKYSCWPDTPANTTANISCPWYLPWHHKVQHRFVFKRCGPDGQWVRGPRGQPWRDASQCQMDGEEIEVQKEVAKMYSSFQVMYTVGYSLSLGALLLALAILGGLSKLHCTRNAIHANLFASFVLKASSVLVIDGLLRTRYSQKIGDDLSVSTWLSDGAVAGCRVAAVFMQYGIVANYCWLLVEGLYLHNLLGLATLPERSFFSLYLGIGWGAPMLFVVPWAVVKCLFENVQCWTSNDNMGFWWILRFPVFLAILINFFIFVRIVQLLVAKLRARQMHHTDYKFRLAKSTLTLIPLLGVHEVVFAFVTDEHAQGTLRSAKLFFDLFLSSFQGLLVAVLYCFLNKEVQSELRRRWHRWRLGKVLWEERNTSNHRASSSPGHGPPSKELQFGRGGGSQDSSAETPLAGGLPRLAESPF

Chain of wild-type GCGR with Rluc8 at the C terminus (human) (P47871 26-477): as above

fold shift of the glucagon EC50 in the GCGR–βarr1 BRET, mutant against wild type [1]: 112 to 205 fold
Molecule: human βarr1 with GFP2 at the C terminus (from UniProt P49407 1-418) (natural protein)

fold shift of the glucagon EC50 in the GCGR–βarr1 BRET, mutant against wild type [2]: 24 fold
Molecule: ΔFL, the βarr1 mutant with the turn region of the finger loop removed, with GFP2 at the C terminus (from UniProt P49407 1-418) (natural protein)

fold drop of glucagon potency in the GCGR–βarr1 BRET, mutant against wild type [3]: 15 fold
B1: βarr1 3Q (K232Q, R236Q and K250Q) with GFP2 at the C terminus (natural protein, human, UniProt P49407 1-418, looked up)
chain: MGDKGTRVFKKASPNGKLTVYLGKRDFVDHIDLVDPVDGVVLVDPEYLKERRVYVTLTCAFRYGREDLDVLGLTFRKDLFVANVQSFPPAPEDKKPLTRLQERLIKKLGEHAYPFTFEIPPNLPCSVTLQPGPEDTGKACGVDYEVKAFCAENLEEKIHKRNSVRLVIRKVQYAPERPGPQPTAETTRQFLMSDKPLHLEASLDKEIYYHGEPISVNVHVTNNTNKTVKKIQISVQQYADICLFNTAQYQCPVAMEEADDTVAPSSTFCKVYTLTPFLANNREKRGLALDGKLKHEDTNLASSTLLREGANREILGIIVSYKVKVKLVVSRGGLLGDLASSDVAVELPFTLMHPKPKEEPPHREVPENETPVDTNLIELDTNDDDIVFEDFARQRLKGMKDDKEEEEDGTGSPQLNNR
notes: β-arrestin 1 (βarr1), human, triple mutant of the wild type; source: HEK293F, transfected, in living cells; not shown: GFP2, C-terminal, kept
